The data set is described as follows: soluble on expression in E. coli; label from the status in PepcDB or PDB records.
With “MGSDKIHHHHHHMTEQNRDLVLVTGASGFVGSSVARIAQQKGFKVRVLVRATSPRQNVESLDAEIVVGDMRDEASMRNALRGVRYLLHVAADYRLWAPDPSEIERSNLEGTEATMRAALKEGVERIVYTSSVATLKVTSSGQSADETSPLKADQAIGVYKRSKVLAERAVERMIAEDNLPAVIVNPSTPIGPRDVKPTPTGRIIVEAALGKIPAFVDTGLNLVHVDDVAAGHFLALERGKIGERYILGGENLPLQQMLADIAALTGRKAPTLSLPRWPLYPLAMGAEAIAKITKREPFVTVDGLKMSKNKMYFTSAKAERELGYRARPYREGLGDALEWFRQAGYLKA”, the “soluble on expression in E. coli” value is “not soluble”.

As to “EPPDGKAISDGFNLLQELSAVNRENQLTPLGRQLARLPVDPRMGRMLLEAAKQGSLQEVLIVASAMSVQDVRERPPERQQAADQAHAQWKDAD”, the “soluble on expression in E. coli” value was “not soluble”.

On to “MAHHHHHHMITSINVIHELLTTIYCRIFSRKRKDIYKYDVLLYLQDYYYFDVIKRVSDDIKELDDDSITIEINSNEYEVILNGDKSSSFFNHTFENFCIHRGYDIIKDKTYSNEYEKRIDFLHELLCDLLCLLLNENNEKKGKEKEKEEKKNNMNKNMNYNKERVINKMYHNNNHLFKKFWENIQDILKEINILNENKYVEDINEENIKDILYIQKEKLIKNEDIIIKKNVDINKITLLNNLIEKYNNEYKYRFYYIFLNNYLTIQTMFTSNMIYLYSYEIQNIIHKIIKMKINLYQPLTIYDVLAFQYDQIMFHKSSYMNLISPVKKIKILNNIVERGGDPDEFSKKVIIKDVINANISLKAKFNKARTQNDNNWGNNKYKVRNYYDNNRR”, for which the “soluble on expression in E. coli” value is “soluble”.

As to “MGRQAMKKFVDVSHTIENGLITYKGLPAPIICDYLSREESRSFYEPGTEFQIGKIEMVTNTGTYIDVPFHRYADGKDLSEATVEQMAGLEGVVIPVDKHVKKIDVDVFKSADLHGKAVLIYTGWDEHWNTERYFEDHPYVTEEAANYLKEQKVALVGIDSHNIDDTSGKRRPVHTILLRADILIVEHLCKLGQLVDQSFLFYAVAPKFKGAGTFPVRAFAEIVLEHHHHHH”, the “soluble on expression in E. coli” value was “soluble”.

As to “SLAHIVTLNTPYREDWLTQLADVVTDPDELLRLLNIDADEKLLAGRSAKKLFALRVPRSFIDRMEKGNPDDPLLRQVLTSQDEFVVASGFSTDPLEEQHSVVPGLLHKYHNRALLLVKGGCAVNCRYCFRRHFPYAENQGNKRNWQTALEYVAAHPELDEMIFSGGDPLMAKEHELDWLLTQLEAIPHIKRLRIHSRLPIVIPARITEALVERFARSTLQILLVNHINHANEVDETFRQAMAKLRRVGVTLLNQSVLLRGVNDNAQTLANLSNALFDAGVMPYYLHVLDKVQGAAHFMVSDDEARQIMRELLTLVSGYLVPKLAREIGGEPSKTPLDLQLRQQ”, the “soluble on expression in E. coli” value is “not soluble”.

On to “MGSDKIHHHHHHMKQPLYQQIIDYLQNEIDSGRLPVGAQVPTEKELSAQFNVSRITSKRALTELETQGVIQRHQGKGSFVQAPKHPLHTSLNKVLFLLPFADDLSVGNFYSGLAPTIQAAGLEVFMTSPNFLREKNAADIVNEFAGLVYYAATSNDYLDLLFELALMNFPVVVLDKKIHDLPFATIQSDNFAGGKTATERLIGLGHTKIGYILSGSPALQSVRQRYLGYLQALKEANLAFHTAITETNLLDEHNFKQYFEAHQLTAVVCDNDFSALHCLRNCKNLGIHVPEELSIIGFDDIQAAAFVEPPLTTMAQDFKEMGKLAGEVLLQTMQQDLQIIEDIQVPVTLIERETISTVSK”, for which the “soluble on expression in E. coli” value is “not soluble”.

In the case of “MSLGQRTSRTPDQLENVGVDQKLGATIPKDLSFQNEQGEPVRLSQYFDGSTPVMLTLNYHRCPQLCRIQLQKFTKSLSGMSWTAGDKFKVLTVDISPYEGPKMARKAQERYATFLDRPEETVDGWHFLTGNQAAIETLTDSVGFRYQPLPEKEKQFAHPTTIIFLSGDGTITRYFTTLDPAPGDLRTALVEASDGEGHHHHHH”, the “soluble on expression in E. coli” value was “soluble”.

As to “MTGKKRSASSSRWLQEHFSDKYVQQAQKKGLRSRAWFKLDEIQQSDKLFKPGMTVVDLGAAPGGWSQYVVTQIGGKGRIIACDLLPMDPIVGVDFLQGDFRDELVMKALLERVGDSKVQVVMSDMAPNMSGTPAVDIPRAMYLVELALEMCRDVLAPGGSFVVKVFQGEGFDEYLREIRSLFTKVKVRKPDSSRARSREVYIVATGRKP”, the “soluble on expression in E. coli” value was “soluble”.

Take “MKMLTVENLSKSYGEKPLFDGLSFSIAEGQRAGIIGVNGTGKSTLLKIIAGAEIPDTGDMTHSRGYTISYLSQQPEFDEQLTVLEQVFHGDTPLIRLLRDYEKALLHIEKDPSNEKVQEQLFAVQQRMDAMSVWEANANAKSLLTKLGITDFTATVGNLSGGQKKRIAMAQCFIETPDLLILDEPTNHLDHETVEWLEEYLARYTGAVLLVTHDRYFLDRVTNRIFELDNGKLYSYEGNYSTFLEAKALREEQELAQESKRQNLYRRELAWIRRGAKARSTKQKARIQRFEELKGQEGPAAKQSVDIALSGSRLGKKVLELKDVTKKFGDKTVLNNFNHIVKPGDRIGIIGANGSGKSSLLNMLAGKISPDSGEIEVGQTVKIAYYTQENEEMNLNQRMIEYIKEIAEVIHTTDGKVIGASQMLERFLFPPHSHGTPLGKLSGGERRRLYLLRILMGEPNVLLLDEPTNDLDPQTLTVLEDYLEDFSGVVLTVSHDRYFLDKVVDELFIFTGEGEVREFLGSYTDYLEMEKTRELIEKAEVQKEKKVVEEAPKQQRKRKLSYNEQREWETIEDTIAELEEKLESIGEELANVGSDFTKAQELSEAQQKTEEELEKTMERWSELSDIVEGLK”: the “soluble on expression in E. coli” value was “not soluble”.

Regarding “MSHPWRSRGEKRTIMFGYTPSDTILKYLKDMRDLINRAILNAYSIARSNDDSLPSPITLRRSLKDYYDNNVAYAKHHINPVCRTAIAMLRSYKKNNGRLKVVKAKRLAMRIDSELAKIEDNRLRITIRPNVYEYVDIVDRNKKYSEYSKYPISEVLLTDNRVYITFITGSDDKPVIANNIIGFDLNFKSVDYTVIKDNRIAYVDSIDTYDIAKTQRDYERKRRKIQKHIRNPAKRIRKLKEAKHRQRNIVRDKLQKLTTNIVKNNEDKTFVFEDLTNIKKKGKKHKDHKRDGQSSKRFRTDINRWPYRLFQMFVEYKSKNETLYVDPEGTSSECPVCGGILEHPIWKMSKCDNCGATFDRDRLSSLSIAVRGLHLCGTPFSVSGSASWDSMKDNYLYR”, the “soluble on expression in E. coli” value is “not soluble”.

As to “MDQPISVTLSSTTDPLWRSCHEYDNEMVITVNGRRIFPTLEYTVTGLDTFKLYSMCMHLDLVDDKKLRFTGGQWAESVSTEKKDPPRKVWHHNGSQTGKDWMLRNVSFDQIRITNRKSKEDGNASYVHLLTQHRYIPVLTIYEGDQLVHTARIPHSQFISVTAYHKGELNTLKTNNNPYSTGSRKDRRRERQSPVYSEGTSSEKSISPPPAKKIKDMAPALPDYSVISKPNLLQSLIFPMIAEQPSTSQSPPAPPVFPFNPDLQMQMLQPFMLPQFGFPCGFPSINPFMNPFLTPFTSMFPTPTVSPDGEGVKLEPEAFVEV”, the “soluble on expression in E. coli” value is reported as “not soluble”.

For “MAKILVAGKIPEIGLELLKDHDVEMYDKEELISLDELTERVKDKDALLSLLSTKVTKEVIDAAPSLKIVANYGAGYDNIDYTYAGEKGIAVTNTPKVSTEATAELTFALLLAAARRIPEGDTLCRTTGFNGWAPLFFLGREVHGKTIGIIGLGEIGKAVAKRAKAFGMNILYTGPNRKPEAESELEATYVTLEELLQTADFITINCAYNPKLHHMIDEEQFKMMKKTAYIVNASRGPIMHEAALAHALKTNEIEGAALDVFEFEPKITEELKGLKNVVLAPHVGNATFETRDAMAEMAVRNILAVLKGEEPVTPVNQKVFVTK”, the “soluble on expression in E. coli” value is recorded as “soluble”.

As for “MSSRIRINTKSLLVQPGYSGSKMRDRLFFLLSKYGIRPRDSIGQHFLIIEDVIEKAIETANVNENDVILEVGPGLGFLTDELAKRAKKVYTIEIDQKIIEILKKEYSWNNVKIIQGDAVRVEWPKFNKVVSNIPYKISSPFTFKLLKTDFERAVVMYQLEFALRMVAKPGSRNYSRLSLMAQALGNVEIVMKIGKGAFYPRPKVDSALVLIEPRKDKIVLNENLVKALFQHRRKTVPRALKDSIHMLGVSKDEIRGIINNVPHSNKRVFQLYPEEVKDIEEYLKKHGIIS”, the “soluble on expression in E. coli” value is “soluble”.

As for “MSLITCKFKNLGNLHAGGCGYIPLSSTREERVKNGSRVVSTALLSSYHKGIAFVIFPSHHHTPTRPPSPKPSGSGGYLLNLRRRDPPQAFLSGCPPLPPRGSVLLGCTPPRTQFFVFHVVSYPLVLQKLLQTRDQKSIGSNSSCDTSEMSDCWQVTLSI”, the “soluble on expression in E. coli” value is reported as “not soluble”.

Regarding “MPTPCYISITGQTQGNITAGAFTADSVGNIYVQGHEDEMLVQEFLHNVTVPTDPQSGQPAGQRAHKPFIFTVALNKAVPLMYNALASGEMLPTTELHWWRTSVEGKQEHYFTTRLTDSTIVDMKLHMPHCQDPAKREFTQLLEVSLAYRKIEWEHVKSGTSGADDWRAPLEA”, the “soluble on expression in E. coli” value was “soluble”.

Take “MQSWSRVYCSLAKRGHFNRISHGLQGLSAVPLRTYADQPIDADVTVIGSGPGGYVAAIKAAQLGFKTVCIEKNETLGGTCLNVGCIPSKALLNNSHYYHMAHGTDFASRGIEMSEVRLNLDKMMEQKSTAVKALTGGIAHLFKQNKVVHVNGYGKITGKNQVTATKADGGTQVIDTKNILIATGSEVTPFPGITIDEDTIVSSTGALSLKKVPEKMVVIGAGVIGVELGSVWQRLGADVTAVEFLGHVGGVGIDMEISKNFQRILQKQGFKFKLNTKVTGATKKSDGKIDVSIEAASGGKAEVITCDVLLVCIGRRPFTKNLGLEELGIELDPRGRIPVNTRFQTKIPNIYAIGDVVAGPMLAHKAEDEGIICVEGMAGGAVHIDYNCVPSVIYTHPEVAWVGKSEEQLKEEGIEYKVGKFPFAANSRAKTNADTDGMVKILGQKSTDRVLGAHILGPGAGEMVNEAALALEYGASCEDIARVCHAHPTLSEAFREANLAASFGKSINF”: the “soluble on expression in E. coli” value is reported as “not soluble”.

Consider “MTDNLLSISAACLFDDQGNLLLVRKRGTQAFMLPGGKREPGETPLAALQRELLEELRLPMGASTFEHLGSFQAPAANEANTRVDADIYVARLPHAVCAQAELEELAWLVPGQAQPDNLAPLLRDHVLPALARRAAENPETQAEHRTRPDHVR”, for which the “soluble on expression in E. coli” value was “not soluble”.

Take “MGGVFSSASSNQAQITGILQELERTRLEREIALAHLQERRRIAFKIAEEREKFNWIACGGSLVVVLSALSSFHHKNLLHVIPIFPMASFIGYKAHFCYGDQLKKISETSTQLLEESVDALVPLPPTIADVRSRSKQIKEEESSNY”: the “soluble on expression in E. coli” value is given as “not soluble”.

For the sequence “MTLKELLVGFGTQVRSIWMIGLHAFAKRETRMYPEEPVYLPPRYRGRIVLTRDPDGEERCVACNLCAVACPVGCISLQKAETKDGRWYPEFFRINFSRCIFCGLCEEACPTTAIQLTPDFELGEYKRQDLVYEKEDLLISGPGKYPEYNFYRMAGMAIDGKDKGEAENEAKPIDVKSLLP”, the “soluble on expression in E. coli” value is “not soluble”.

As to “MPTPFRDLHNKSNASASSYETAWSSSFSSRRSTNNDSKSNLKEIKDEPISNLDESISILENNISMMSVSSPTPAYRTPARVIAREAPMTPGDRLLQKIEKEDERDMLRQLYPEMFDSNQKPRQKPKEVKKALKVESLSDYENDDKENVPPCGKPSKEKEEKKQRTKKIVISSDSEDDGNFENYLKTLREKPTEPAKPERKIPVKKDFVVDDDYISEESSEEESEEEEEDVDDEEYRESSPEVEAKISYSDRKQKKRPTDEEEWFLLSLSEKFSGPIHEDAKVYIKETSLRYKKHRESLLTRLQDILVRRIFSAIPSEKLKVIWNARLRKSAGQCRNHSNGNSTVEMSPVVCTTAERVRDTLIHELCHAATWVVDRLHKEGHGPGWKRWGARCSSVFKSLPFIERCHSYEIEAKFFYVCEKDGCDVEIKRQSKSLDTSRKACGRCFGRFILYRYCRRTNTRIRIEDPKAKPVGPILSNSSKPSPPAPRRIVSEHPEGFKEYSEEHYWKYTAQGLKHSDVMGKLLKEFKELKQL”, the “soluble on expression in E. coli” value is recorded as “not soluble”.

These data come from the DeepSol protein solubility set.
